# Numbering of substitutions follows the chain as printed.
# B1: Ab_050 (H5S19-9A11A) (antibody, V domains shown)
# VH: QVQLKQSGPGLVQPSQSLSITCTVSGFSLTTYGVHWVRQSPGKGLEWLGVIWSGGSTDYNAAFISRLSISKDNSKSQVFFKMNSLQANDTAIYYCARRGYGSPYYYAMDYWGQGTSVTVSS
# VL: EIVLTQSPALMAASPGEKVTITCSVSSSISSSNLHWYQQKSETSPKPWIYGTSNLASGVPVRFSGSGSGTSYSLTISSMEAEDAATYYCQQWSSYPLTFGAGTKLELK
# notes: also called Ab_50
# B2: Ab_051 (H5S19-4A6A) (antibody, V domains shown)
# VH: QVQLKESGPGLVAPSQSLSITCTVSGFSLTGYGVNWVRQPPGKGLEWLGMIWGDGNTDYNSALKSRLSISKDNSKSQVFLKMNSLQTDDTARYYCARSYGSYWGQGTLVTVSA
# VL: QIVLTQSPAIMSASPGEKVTMTCSASSSVSYMYWYQQKPGSSPRLLIYDTSNLASGVPVRFSGSGSGTSYSLTISRMEAEDAATYYCQQWSSYPFTFGSGTKLEIK
# notes: also called Ab_51
# B3: Ab_065 (H5S20-39A29A) (antibody, V domains shown)
# VH: EVKLVESGGGLVKPGGSLKLSCAASGFTFSSYAMSWVRQTPETRLEWVASISSGGNTYYPDSVKGRFTISRDNVRNILYLQMSSLRSEDTAMYFCTRGGYGSSHVIWGQGTTLTVSS
# VL: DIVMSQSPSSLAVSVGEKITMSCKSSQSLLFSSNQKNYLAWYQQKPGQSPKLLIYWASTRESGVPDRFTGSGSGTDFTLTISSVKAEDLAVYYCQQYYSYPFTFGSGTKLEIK
# notes: also called Ab_65
# B4: Ab_063 (H5S20-4A4A) (antibody, V domains shown)
# VH: B3 VH with V12M, N56S, H104Y
# VL: DIVMSQSPSSLAVSVGEKITMSCKSSQSLLFSSIQKNYLAWYQQKPGQSPKLLVYWASTRESGVPDRFTGSGSGTDFTLTISSVKAEDLAVYYCQQYYSYPFTFGSGTKLEIK
# notes: also called Ab_159; Ab_63
# B5: Ab_064 (H5S20-6A6A) (antibody, V domains shown)
# VH: B3 VH with Y32F, T43K, S62N, V74A, R75G, F94Y, T96A, H104Y
# VL: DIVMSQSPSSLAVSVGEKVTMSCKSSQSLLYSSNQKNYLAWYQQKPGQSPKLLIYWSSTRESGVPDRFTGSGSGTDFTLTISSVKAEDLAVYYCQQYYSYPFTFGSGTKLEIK
# notes: also called Ab_64
# B6: Ab_066 (H5S20-1A1A) (antibody, V domains shown)
# VH: B3 VH with N56D, Y58F, P60R, G65A, N73D, N76D, H104F
# VL: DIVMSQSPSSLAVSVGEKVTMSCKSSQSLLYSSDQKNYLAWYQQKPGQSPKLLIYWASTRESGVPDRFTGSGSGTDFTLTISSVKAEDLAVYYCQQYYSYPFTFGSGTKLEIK
# notes: also called Ab_66
# B7: Ab_036 (H5S15-12A13A) (antibody, V domains shown)
# VH: EVQLQQSGAELVKPGASVKLSCTASGFNIKDTYMHWVKQRPEQGLEWIGRIDPANGNTKFDPKFQGKATITADTSSNTAYLQLSSLTSEDTAVYYCASRGGSSFDYWGQGTTLTVSS
# VL: DIVLTQSPASLAVSLGQRATISCKASQSVDYDGESYMNWYQQKPGQPPKLLIYAASNLDSGIPARFSGSGSGTDFTLNIHPVEEEDAATYYCQQSNEDPLTFGAGTKLELK
# notes: also called Ab_36
# B8: Ab_072 (H5S20-15A13A) (antibody, V domains shown)
# VH: B7 VH with F60Y, S98T, R99S, F104Y
# VL: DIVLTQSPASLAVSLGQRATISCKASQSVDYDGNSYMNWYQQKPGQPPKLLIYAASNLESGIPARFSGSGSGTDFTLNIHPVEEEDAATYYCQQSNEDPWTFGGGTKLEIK
# notes: also called Ab_72
# Target: T1, murine HVEM (murine, UniProt Q80WM9 39-206, limits assumed)
# T1 construct: also called Mouse
# T1 sequence (looked up): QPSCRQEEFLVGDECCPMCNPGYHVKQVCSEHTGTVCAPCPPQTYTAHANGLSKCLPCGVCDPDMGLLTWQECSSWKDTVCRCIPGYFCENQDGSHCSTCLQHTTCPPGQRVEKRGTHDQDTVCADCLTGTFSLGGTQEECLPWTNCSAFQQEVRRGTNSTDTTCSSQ
# Assay: ELISA
row,Binder,ELISA signal
1,B1,0.047
2,B2,0.043
3,B3,0.044
4,B4,0.043
5,B5,0.044
6,B6,0.044
7,B7,0.046
8,B8,0.045

# Target: T2, human HVEM (human, UniProt Q92956 39-202, limits assumed)
# T2 sequence (looked up): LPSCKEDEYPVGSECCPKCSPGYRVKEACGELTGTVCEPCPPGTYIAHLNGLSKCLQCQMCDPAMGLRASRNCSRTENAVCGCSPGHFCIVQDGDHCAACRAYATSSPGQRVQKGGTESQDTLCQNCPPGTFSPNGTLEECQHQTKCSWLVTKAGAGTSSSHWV
# Assay: ELISA
row,Binder,ELISA signal
1,B1,3.02
2,B2,3.18
3,B3,3.24
4,B4,3.1
5,B5,3.07
6,B6,3.28
7,B7,3.26
8,B8,3.36

# Target: T3, cynomolgus monkey HVEM (cynomolgus monkey, UniProt A0A2K5W0R1 39-203)
# T3 sequence: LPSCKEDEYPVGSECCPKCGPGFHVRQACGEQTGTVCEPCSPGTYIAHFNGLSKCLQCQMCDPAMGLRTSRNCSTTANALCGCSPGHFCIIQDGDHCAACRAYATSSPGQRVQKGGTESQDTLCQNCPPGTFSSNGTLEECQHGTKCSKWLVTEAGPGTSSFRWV
# Assay: ELISA
row,Binder,ELISA signal
1,B1,0.094
2,B2,0.563
3,B3,1.52
4,B4,3.13
5,B5,0.987
6,B6,0.883
7,B7,0.079
8,B8,0.062

# Target: T4, Human HEVM recombinant protein (Sino Biological, 10334-H02H) (human, UniProt Q92956 39-202)
# T4 construct: construct known only by catalogue number; also called HVEM; human HVEM
# T4 sequence (looked up): T2 sequence (looked up)
# Assay: competition ELISA, competitor BTLA-His
# In short: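 HVEM protein coated at 4 ug/ml; antibody serially diluted 3-fold over 7 points (final top 100 nM for BTLA, 325 nM for LIGHT), premixed with 400 nM His-tagged competitor and incubated 1 Hr at RT. Bound competitor detected by HRP-anti-His/TMB at 450 nm; IC50 calculated.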
row,Binder,IC50 [nM]
1,B1,3
2,B2,1.3
3,B3,1.7
4,B4,2.2
5,B5,1.5
6,B6,1.5
7,B7,0.8
8,B8,1.6

# Target: T4, Human HEVM recombinant protein (Sino …)
# Assay: competition ELISA, competitor LIGHT-His
# Experimental: The competitive activity of HVEM antibody to BTLA or LIGHT was evaluated with ELISA-based competitive assay. Briefly Human HEVM recombinant protein (Sino Biological, 10334-H02H, 4 ug/ml, 100 ul/well) was coated to ELISA plate (Thermo Scientific, 469949, 4C overnight). A pre-mixture of HVEM antibody clone with seral dilution and 400 nM BTLA-His (R&D systems, 9235-BT-050) or LIGHT-His (SinoBiological, 10386-H07H) recombinant protein was made and added to the ELISA plate after blocking with 3% BSA (200 ul/well, RT 2 Hr) for 1 Hr at RT. The serial dilutions of HVEM antibody clone involve 7 different concentrations, with a 3-fold dilution performed start from 100 nM for BTLA or 325 nM for LIGHT competitive assay. The concentration was the final concentration. Plate was washed with PBST; diluted HRP-anti-His (Biolegend, 652504, 1:1000) with PBS containing 5% FBS was added 100 ul per well for 1 Hr at RT. TMB substrate (KPL, 52-00-00) 100 ul per well after washing and incubate at room temperature for 15 minutes; then stop the development by adding 100 ul stop solution (KPL, 50-85-06). Plate was read at 450 nm. The IC50 was calculated using GraphPad Prism software (GraphPad Software, Inc. San Diego, CA, USA).
row,Binder,IC50 [nM]
1,B1,117
2,B2,18.6
3,B3,8
4,B4,5.7
5,B5,8.7
6,B6,10.4
7,B7,18.7
8,B8,252

# Target: T5, His-tagged human HVEM (human, UniProt Q92956 39-202, limits assumed)
# T5 construct: Analyte of the BLI assay, 200 nM in PBS; not shown: His tag
# T5 sequence (looked up): T2 sequence (looked up)
# Assay: BLI OctetRed96, mAb captured, 200 nM His-HVEM
# In short: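 Murine anti-human HVEM antibodies captured from culture supernatant on anti-mouse IgG Fc biosensors, then associated with 200 nM His-tagged human HVEM in PBS, followed by dissociation in PBS. koff, kon and KD obtained by curve fitting.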
Binder,Kd [nM],koff [s⁻¹],kon [M⁻¹ s⁻¹]
B1,42.2,0.00481,114000
B2,28.8,0.0143,496000
B3,14.9,0.0049,330000
B4,4.09,0.00216,528000
B5,10.7,0.00355,333000
B6,9.59,0.00247,258000
B7,18.7,0.0107,571000
B8,11.7,0.0197,1.69e+06

# — US20240317871A1 (IMMUNOMIC THERAPEUTICS, published 2024)
